Laboratory results taken from patent US10088487B2, “Method for the quantitative characterization of amyloid and/or aggregating peptides and/or proteins in a sample” (Forschungszentrum Juelich GmbH, priority 2013, dated 2018).
Non-standard residues stand in square brackets, D forms with d. No end group written: not given here.

Assays:
[1] = test system: Aβ oligomers; conditions: according to what is presently known; cited from earlier work
[2] = test system: transgenic AD mice; conditions: oral administration with drinking water; cited from earlier work
[3] = target: T1, Aβ(1-42) oligomers (Homo sapiens, UniProt P05067); experiment: Density gradient centrifugation combined with RP-HPLC: effect of active ingredient on size distribution of Aβ(1-42) aggregates; assay type: biochemical; conditions: for quantity of Aβ oligomers in fractions 4 to 6: co-incubation 40 min, vs control without active ingredient
T1 construct: 1 mg of lyophilized Aβ(1-42) (Bachem, Heidelberg); purchased Bachem, Heidelberg
Procedure: For the following examples of embodiments, only one ultracentrifuge and one HPLC system having a suitable separating column and a UV detector were required. In order to determine the reduction of the Aβ oligomer proportion in an aggregate mixture, pretreated and dried Aβ(1-42) peptide was dissolved in buffer and incubated until the greatest possible Aβ oligomer proportion was obtained. The active ingredient to be analyzed was then added to this oligomer-enriched sample.
1 mg of lyophilized Aβ(1-42) (Bachem, Heidelberg) was incubated, after being removed from the freezer, for 10 to 30 min at room temperature (RT) in order to equalize the temperature of the peptide pellet and of the surrounding environment and thus to avoid moisture condensing from the air. Thereafter, the Aβ peptide was dissolved in HFIP (1,1,1,3,3,3-hexafluoro-2-propanol) (Sigma-Aldrich, Taufkirchen) in a concentration of 1 mg/700 μl and incubated overnight at RT with shaking until full dissolution was achieved, in order to ensure that the Aβ(1-42) exists entirely as monomers at this point in time. The Aβ(1-42) was then aliquoted in an amount of 36 μg per Eppendorf vessel. To remove the HFIP, the aliquots were left to stand open under the extractor for approximately 30 min. The rotational vacuum concentrator (rotational vacuum concentrator RVC 2-18, Christ, Mainz-Mombach) was pre-cooled for approximately 30 min. The Aβ(1-42) aliquots were then dried for a further 30 min in the rotational vacuum concentrator so that the last HFIP residues could also evaporate off. The aliquoted, dried Aβ(1-42) was stored at −20° C. until use.
Prior to the experiment, one Aβ(1-42) aliquot was dissolved to 80 μM in 100 μl of 10 mM NaH2PO4/Na2HPO4 buffer (Sigma-Aldrich, Taufkirchen), pH 7.4 and incubated at RT for 6 h with shaking. The incubation time of 6 h was optimized for this specific Aβ from this specific company in order to ensure that the largest possible proportion of the Aβ exists as oligomers, so as to be able to measure the reduction thereof as unambiguously as possible. For other Aβ peptides from other manufacturers, the incubation time may vary and should/can be adapted accordingly.
Thereafter, the active ingredient candidate to be analyzed was added in a quantity of 10 or 20 μM. The co-incubation of the Aβ/active ingredient solution took place for 40 min at RT with continuous shaking. When no active ingredient was added (control), the Aβ solution was treated in the same way.
The samples were then layered onto a pre-formed density gradient (see Table 1). The gradient material used consisted of a 60% strength (w/v) iodixanol solution named Optiprep™ (Axis-Shield, Oslo, Norway). It is a dimeric compound of iohexol having the systematic name 5,5-[(2-hydroxy-1,3-propanediyl)-bis(acetylimino)]bis-[N,N′-bis(2,3-hydroxypropyl)-2,4,6-triiodobenzenedicarboxamide]. […]
The non-linear density gradient was centrifuged at 4° C. and 259,000×g in a TLS-55 swing-out rotor (Beckman-Coulter, Palo Alto, USA) for 3 h in a TL 100 ultracentrifuge (Beckman-Coulter, Palo Alto, USA). The density gradient is measured by refractometric determination of the iodixanol concentration in the individual fractions. An estimate of the size of sedimented protein particles based on the position in the gradient at the end of the centrifugation takes place on the basis of a calibration using marker proteins of known size and shape, which were analyzed under identical centrifugation conditions on the gradient. […]

T1 sequence (P05067 672-713): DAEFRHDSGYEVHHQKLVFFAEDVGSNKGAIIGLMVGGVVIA
Chain of Aβ oligomers (P05067 672-711 limits assumed): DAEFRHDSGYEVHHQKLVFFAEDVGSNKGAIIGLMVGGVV

## D3: D-enantiomeric peptide identified by mirror image phage display selection against predominantly monomeric Aβ(1-42); SEQ ID NO: 1 ([dR][dP][dR][dT][dR][dL][dH][dT][dH][dR][dN][dR])
[1]
  effect on toxic Aβ oligomers (conversion into non-toxic, non-amyloidogenic, ThT-negative amorphous aggregates): destroys the particularly toxic Aβ oligomers
[2]
  cognitive capabilities of treated transgenic AD mice: significantly improved cognitive capabilities
  plaques in treated transgenic AD mice: considerably fewer plaques
[3]; 20 μM D3, 80 μM Aβ(1-42) pre-incubated 6 h
  quantity of Aβ oligomers in fractions 4 to 6: reduction in the quantity of oligomers
[3]; 20 μM D3, vs control without active ingredient
  proportion of large aggregates in fractions 11 to 14: much greater

## D3D3: tandem dimer of the D-peptide D3; SEQ ID NO: 2 ([dR][dP][dR][dT][dR][dL][dH][dT][dH][dR][dN][dR][dR][dP][dR][dT][dR][dL][dH][dT][dH][dR][dN][dR])
[3]; 10 μM D3D3, 80 μM Aβ(1-42) pre-incubated 6 h
  quantity of Aβ oligomers in fractions 4 to 6: reduction in the quantity of oligomers
[3]; 10 μM D3D3, vs control without active ingredient
  proportion of large aggregates in fractions 11 to 14: much greater
[3]; 10 μM D3D3 versus 20 μM D3
  effect in eliminating oligomeric Aβ species compared with D3: much more pronounced effect
